Measurements: patent publication US20210388087A1 (Chugai, published 2021)

B1: H183/L072 VH G52cK (antibody, name in Kabat numbering, V domains shown)
VH: QVQLVESGGGLVQPGRSLRLSCAASGFTFSNAWMHWVRQAPGKGLEWVAQIKDKKNAYAAYYAPSVKGRFTISRDDSKNSIYLQMNSLKTEDTAVYYCHYVHYASASTVLPAFGVDAWGQGTTVTVSS
VL: DIVMTQSPLSLPVTPGEPASISCQASQELVHMNRNTYLHWYQQKPGQAPRLLIYKVSNRFPGVPDRFSGSGSGTDFTLKISRVEAEDVGVYYCAQGTSVPFTFGQGTKLEIK
B2: H183/L072 VH G52cT (antibody, name in Kabat numbering, V domains shown)
VH: QVQLVESGGGLVQPGRSLRLSCAASGFTFSNAWMHWVRQAPGKGLEWVAQIKDKTNAYAAYYAPSVKGRFTISRDDSKNSIYLQMNSLKTEDTAVYYCHYVHYASASTVLPAFGVDAWGQGTTVTVSS
VL: DIVMTQSPLSLPVTPGEPASISCQASQELVHMNRNTYLHWYQQKPGQAPRLLIYKVSNRFPGVPDRFSGSGSGTDFTLKISRVEAEDVGVYYCAQGTSVPFTFGQGTKLEIK
B3: H183/L072 VH G100hL (antibody, name in Kabat numbering, V domains shown)
VH: QVQLVESGGGLVQPGRSLRLSCAASGFTFSNAWMHWVRQAPGKGLEWVAQIKDKGNAYAAYYAPSVKGRFTISRDDSKNSIYLQMNSLKTEDTAVYYCHYVHYASASTVLPAFLVDAWGQGTTVTVSS
VL: DIVMTQSPLSLPVTPGEPASISCQASQELVHMNRNTYLHWYQQKPGQAPRLLIYKVSNRFPGVPDRFSGSGSGTDFTLKISRVEAEDVGVYYCAQGTSVPFTFGQGTKLEIK
B4: H183/L072 VH G52cV (antibody, name in Kabat numbering, V domains shown)
VH: QVQLVESGGGLVQPGRSLRLSCAASGFTFSNAWMHWVRQAPGKGLEWVAQIKDKVNAYAAYYAPSVKGRFTISRDDSKNSIYLQMNSLKTEDTAVYYCHYVHYASASTVLPAFGVDAWGQGTTVTVSS
VL: DIVMTQSPLSLPVTPGEPASISCQASQELVHMNRNTYLHWYQQKPGQAPRLLIYKVSNRFPGVPDRFSGSGSGTDFTLKISRVEAEDVGVYYCAQGTSVPFTFGQGTKLEIK
B5: H183/L072 VH G100hI (antibody, name in Kabat numbering, V domains shown)
VH: QVQLVESGGGLVQPGRSLRLSCAASGFTFSNAWMHWVRQAPGKGLEWVAQIKDKGNAYAAYYAPSVKGRFTISRDDSKNSIYLQMNSLKTEDTAVYYCHYVHYASASTVLPAFIVDAWGQGTTVTVSS
VL: DIVMTQSPLSLPVTPGEPASISCQASQELVHMNRNTYLHWYQQKPGQAPRLLIYKVSNRFPGVPDRFSGSGSGTDFTLKISRVEAEDVGVYYCAQGTSVPFTFGQGTKLEIK
B6: H183/L072 VH G65P (antibody, name in Kabat numbering, V domains shown)
VH: QVQLVESGGGLVQPGRSLRLSCAASGFTFSNAWMHWVRQAPGKGLEWVAQIKDKGNAYAAYYAPSVKPRFTISRDDSKNSIYLQMNSLKTEDTAVYYCHYVHYASASTVLPAFGVDAWGQGTTVTVSS
VL: DIVMTQSPLSLPVTPGEPASISCQASQELVHMNRNTYLHWYQQKPGQAPRLLIYKVSNRFPGVPDRFSGSGSGTDFTLKISRVEAEDVGVYYCAQGTSVPFTFGQGTKLEIK
B7: H183/L072 VH G65A (antibody, name in Kabat numbering, V domains shown)
VH: QVQLVESGGGLVQPGRSLRLSCAASGFTFSNAWMHWVRQAPGKGLEWVAQIKDKGNAYAAYYAPSVKARFTISRDDSKNSIYLQMNSLKTEDTAVYYCHYVHYASASTVLPAFGVDAWGQGTTVTVSS
VL: DIVMTQSPLSLPVTPGEPASISCQASQELVHMNRNTYLHWYQQKPGQAPRLLIYKVSNRFPGVPDRFSGSGSGTDFTLKISRVEAEDVGVYYCAQGTSVPFTFGQGTKLEIK
B8: H183/L072 VH G100hA (antibody, name in Kabat numbering, V domains shown)
VH: QVQLVESGGGLVQPGRSLRLSCAASGFTFSNAWMHWVRQAPGKGLEWVAQIKDKGNAYAAYYAPSVKGRFTISRDDSKNSIYLQMNSLKTEDTAVYYCHYVHYASASTVLPAFAVDAWGQGTTVTVSS
VL: DIVMTQSPLSLPVTPGEPASISCQASQELVHMNRNTYLHWYQQKPGQAPRLLIYKVSNRFPGVPDRFSGSGSGTDFTLKISRVEAEDVGVYYCAQGTSVPFTFGQGTKLEIK
B9: H183/L072 VH G52cS (antibody, name in Kabat numbering, V domains shown)
VH: QVQLVESGGGLVQPGRSLRLSCAASGFTFSNAWMHWVRQAPGKGLEWVAQIKDKSNAYAAYYAPSVKGRFTISRDDSKNSIYLQMNSLKTEDTAVYYCHYVHYASASTVLPAFGVDAWGQGTTVTVSS
VL: DIVMTQSPLSLPVTPGEPASISCQASQELVHMNRNTYLHWYQQKPGQAPRLLIYKVSNRFPGVPDRFSGSGSGTDFTLKISRVEAEDVGVYYCAQGTSVPFTFGQGTKLEIK
B10: H183/L072 VH G52cM (antibody, name in Kabat numbering, V domains shown)
VH: QVQLVESGGGLVQPGRSLRLSCAASGFTFSNAWMHWVRQAPGKGLEWVAQIKDKMNAYAAYYAPSVKGRFTISRDDSKNSIYLQMNSLKTEDTAVYYCHYVHYASASTVLPAFGVDAWGQGTTVTVSS
VL: DIVMTQSPLSLPVTPGEPASISCQASQELVHMNRNTYLHWYQQKPGQAPRLLIYKVSNRFPGVPDRFSGSGSGTDFTLKISRVEAEDVGVYYCAQGTSVPFTFGQGTKLEIK
B11: H183/L072 VH G52cN (antibody, name in Kabat numbering, V domains shown)
VH: QVQLVESGGGLVQPGRSLRLSCAASGFTFSNAWMHWVRQAPGKGLEWVAQIKDKNNAYAAYYAPSVKGRFTISRDDSKNSIYLQMNSLKTEDTAVYYCHYVHYASASTVLPAFGVDAWGQGTTVTVSS
VL: DIVMTQSPLSLPVTPGEPASISCQASQELVHMNRNTYLHWYQQKPGQAPRLLIYKVSNRFPGVPDRFSGSGSGTDFTLKISRVEAEDVGVYYCAQGTSVPFTFGQGTKLEIK
B12: H183/L072 VH G100hM (antibody, name in Kabat numbering, V domains shown)
VH: QVQLVESGGGLVQPGRSLRLSCAASGFTFSNAWMHWVRQAPGKGLEWVAQIKDKGNAYAAYYAPSVKGRFTISRDDSKNSIYLQMNSLKTEDTAVYYCHYVHYASASTVLPAFMVDAWGQGTTVTVSS
VL: DIVMTQSPLSLPVTPGEPASISCQASQELVHMNRNTYLHWYQQKPGQAPRLLIYKVSNRFPGVPDRFSGSGSGTDFTLKISRVEAEDVGVYYCAQGTSVPFTFGQGTKLEIK
B13: H183/L072 VH G52cW (antibody, name in Kabat numbering, V domains shown)
VH: QVQLVESGGGLVQPGRSLRLSCAASGFTFSNAWMHWVRQAPGKGLEWVAQIKDKWNAYAAYYAPSVKGRFTISRDDSKNSIYLQMNSLKTEDTAVYYCHYVHYASASTVLPAFGVDAWGQGTTVTVSS
VL: DIVMTQSPLSLPVTPGEPASISCQASQELVHMNRNTYLHWYQQKPGQAPRLLIYKVSNRFPGVPDRFSGSGSGTDFTLKISRVEAEDVGVYYCAQGTSVPFTFGQGTKLEIK
B14: H183/L072 VH G52cP (antibody, name in Kabat numbering, V domains shown)
VH: QVQLVESGGGLVQPGRSLRLSCAASGFTFSNAWMHWVRQAPGKGLEWVAQIKDKPNAYAAYYAPSVKGRFTISRDDSKNSIYLQMNSLKTEDTAVYYCHYVHYASASTVLPAFGVDAWGQGTTVTVSS
VL: DIVMTQSPLSLPVTPGEPASISCQASQELVHMNRNTYLHWYQQKPGQAPRLLIYKVSNRFPGVPDRFSGSGSGTDFTLKISRVEAEDVGVYYCAQGTSVPFTFGQGTKLEIK
B15: H183/L072 VH G65I (antibody, name in Kabat numbering, V domains shown)
VH: QVQLVESGGGLVQPGRSLRLSCAASGFTFSNAWMHWVRQAPGKGLEWVAQIKDKGNAYAAYYAPSVKIRFTISRDDSKNSIYLQMNSLKTEDTAVYYCHYVHYASASTVLPAFGVDAWGQGTTVTVSS
VL: DIVMTQSPLSLPVTPGEPASISCQASQELVHMNRNTYLHWYQQKPGQAPRLLIYKVSNRFPGVPDRFSGSGSGTDFTLKISRVEAEDVGVYYCAQGTSVPFTFGQGTKLEIK
B16: H183/L072 VH G65L (antibody, name in Kabat numbering, V domains shown)
VH: QVQLVESGGGLVQPGRSLRLSCAASGFTFSNAWMHWVRQAPGKGLEWVAQIKDKGNAYAAYYAPSVKLRFTISRDDSKNSIYLQMNSLKTEDTAVYYCHYVHYASASTVLPAFGVDAWGQGTTVTVSS
VL: DIVMTQSPLSLPVTPGEPASISCQASQELVHMNRNTYLHWYQQKPGQAPRLLIYKVSNRFPGVPDRFSGSGSGTDFTLKISRVEAEDVGVYYCAQGTSVPFTFGQGTKLEIK
B17: H183/L072 VH G65M (antibody, name in Kabat numbering, V domains shown)
VH: QVQLVESGGGLVQPGRSLRLSCAASGFTFSNAWMHWVRQAPGKGLEWVAQIKDKGNAYAAYYAPSVKMRFTISRDDSKNSIYLQMNSLKTEDTAVYYCHYVHYASASTVLPAFGVDAWGQGTTVTVSS
VL: DIVMTQSPLSLPVTPGEPASISCQASQELVHMNRNTYLHWYQQKPGQAPRLLIYKVSNRFPGVPDRFSGSGSGTDFTLKISRVEAEDVGVYYCAQGTSVPFTFGQGTKLEIK
B18: H183/L072 VH G52cQ (antibody, name in Kabat numbering, V domains shown)
VH: QVQLVESGGGLVQPGRSLRLSCAASGFTFSNAWMHWVRQAPGKGLEWVAQIKDKQNAYAAYYAPSVKGRFTISRDDSKNSIYLQMNSLKTEDTAVYYCHYVHYASASTVLPAFGVDAWGQGTTVTVSS
VL: DIVMTQSPLSLPVTPGEPASISCQASQELVHMNRNTYLHWYQQKPGQAPRLLIYKVSNRFPGVPDRFSGSGSGTDFTLKISRVEAEDVGVYYCAQGTSVPFTFGQGTKLEIK
B19: H183/L072 VH G52cL (antibody, name in Kabat numbering, V domains shown)
VH: QVQLVESGGGLVQPGRSLRLSCAASGFTFSNAWMHWVRQAPGKGLEWVAQIKDKLNAYAAYYAPSVKGRFTISRDDSKNSIYLQMNSLKTEDTAVYYCHYVHYASASTVLPAFGVDAWGQGTTVTVSS
VL: DIVMTQSPLSLPVTPGEPASISCQASQELVHMNRNTYLHWYQQKPGQAPRLLIYKVSNRFPGVPDRFSGSGSGTDFTLKISRVEAEDVGVYYCAQGTSVPFTFGQGTKLEIK
B20: H183/L072 VH G52cR (antibody, name in Kabat numbering, V domains shown)
VH: QVQLVESGGGLVQPGRSLRLSCAASGFTFSNAWMHWVRQAPGKGLEWVAQIKDKRNAYAAYYAPSVKGRFTISRDDSKNSIYLQMNSLKTEDTAVYYCHYVHYASASTVLPAFGVDAWGQGTTVTVSS
VL: DIVMTQSPLSLPVTPGEPASISCQASQELVHMNRNTYLHWYQQKPGQAPRLLIYKVSNRFPGVPDRFSGSGSGTDFTLKISRVEAEDVGVYYCAQGTSVPFTFGQGTKLEIK
B21: H183/L072 VH G52cY (antibody, name in Kabat numbering, V domains shown)
VH: QVQLVESGGGLVQPGRSLRLSCAASGFTFSNAWMHWVRQAPGKGLEWVAQIKDKYNAYAAYYAPSVKGRFTISRDDSKNSIYLQMNSLKTEDTAVYYCHYVHYASASTVLPAFGVDAWGQGTTVTVSS
VL: DIVMTQSPLSLPVTPGEPASISCQASQELVHMNRNTYLHWYQQKPGQAPRLLIYKVSNRFPGVPDRFSGSGSGTDFTLKISRVEAEDVGVYYCAQGTSVPFTFGQGTKLEIK

target: T1, Human CD137 ECD (human); test: single mutant vs template dBBDu183H
T1 construct: also called 4-1BB
T1 sequence (chain, as listed by the source limits assumed): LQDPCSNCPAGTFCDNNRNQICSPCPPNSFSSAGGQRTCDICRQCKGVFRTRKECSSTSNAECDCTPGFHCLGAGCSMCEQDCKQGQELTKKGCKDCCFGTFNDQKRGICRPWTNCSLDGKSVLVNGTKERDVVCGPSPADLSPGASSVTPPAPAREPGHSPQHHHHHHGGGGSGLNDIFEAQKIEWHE

B1 was tested. Which “fold change of affinity” value did it give?
The value was 0.2 fold.

With B2 as the binder, how does the “fold change of affinity” value read?
The value was 1 fold.

With B3 as the binder, how does the “fold change of affinity” value read?
The value was 0 fold.

How did the “fold change of affinity” value turn out when B4 was run?
Its value is 0.7 fold.

With B5 as the binder, how does the “fold change of affinity” value read?
The value was 0 fold.

B6 was tested. Which “fold change of affinity” value did it give?
Its value is 1.3 fold.

For B7, which “fold change of affinity” value is on record?
The value was 1.2 fold.

How did the “fold change of affinity” value turn out when B8 was run?
Its value is 0 fold.

B9 was tested. Which “fold change of affinity” value did it give?
Its value is 1.3 fold.

How did the “fold change of affinity” value turn out when B10 was run?
The value was 0.6 fold.

B11 was tested. Which “fold change of affinity” value did it give?
Its value is 0.9 fold.

Which “fold change of affinity” value does the source give for B12 here?
The value was 0 fold.

For B13, which “fold change of affinity” value is on record?
The value was 2 fold.

B14 was tested. Which “fold change of affinity” value did it give?
Its value is 0.4 fold.

For B15, which “fold change of affinity” value is on record?
Its value is 1.3 fold.

With B16 as the binder, how does the “fold change of affinity” value read?
Its value is 1.3 fold.

How did the “fold change of affinity” value turn out when B17 was run?
Its value is 1.2 fold.

Which “fold change of affinity” value does the source give for B18 here?
The value was 0.7 fold.

How did the “fold change of affinity” value turn out when B19 was run?
Its value is 0.8 fold.

For B20, which “fold change of affinity” value is on record?
The value was 0.2 fold.

With B21 as the binder, how does the “fold change of affinity” value read?
Its value is 2 fold.
